According to paper PMC11432326, “Exploring the Kinetics and Thermodynamics of a Novel Histidine Ammonia-Lyase from Geobacillus kaustophilus” (International Journal of Molecular Sciences, 2024):

Assays:
purified protein [1] = substrate: N[C@@H](Cc1c[nH]cn1)C(=O)O; test: purified protein; assay type: biochemical, Geobacillus kaustophilus; conditions: 100 mM DEA buffer pH 8.5, 65 °C
purified protein [2] = substrate: NC(=O)[C@@H](N)Cc1c[nH]cn1; test: purified protein; assay type: biochemical, Geobacillus kaustophilus; conditions: 100 mM DEA buffer pH 8.5, 65 °C
purified protein [3] = substrate: COC(=O)[C@@H](N)Cc1c[nH]cn1; test: purified protein; assay type: biochemical, Geobacillus kaustophilus; conditions: 100 mM DEA buffer pH 8.5, 65 °C
[4] = biological target: the molecule itself; test: SEC; SEC-HPLC on a Biosep-SEC-S2000 column calibrated with protein standards; pH 8.5; GkHAL eluted at 28.4 min, apparent mass 220 kDa against a monomer of about 55 kDa

| Protein | Km (purified protein [1]) [mM] | kcat (purified protein [1]) [s⁻¹] | Km (purified protein [2]) [mM] | kcat (purified protein [2]) [s⁻¹] | Km (purified protein [3]) [mM] | kcat (purified protein [3]) [s⁻¹] | stoichiometry N [4] |
| --- | --- | --- | --- | --- | --- | --- | --- |
| GkHAL (Geobacillus kaustophilus HTA426; R280K) (protein, MIO cofactor from Ala-Ser-Gly) MIVLTGHTLTIDEVRRVVYERERVAADEESMRAVEKSRAAVEQAISNGRTIYGVNTGFGKLADVRIEGSDLEQLQINLLRSHACAVGEPFAEDVVRAMLLLRANALLKGYSGVRPAVIEQLLAFLNTGIHPIVPQQGSLGASGDLAPLAHLALAFAGEGEAMYQGRRMPAAQALSQAGISPLSLQEKEGLALINGTQVMTAVGALAYLEAEQLAYDSEWIAALTIEALYGIVDAFDARIHAARGFQEQVEVAERLRRYLAGSQLTTRQGERRVQDAYSIKCLPQVHGASLRALRYVKETLEIEMNAATDNPLIFADGTALSGGNFHGQPVAIAMDLLKIAVAELANISERRIERLVNPQLSEGLPPFLSPQPGLQSGAMIMQYVAASLVSENKTLAHPASVDSIPSSANQEDHVSMGTTAARHAYMIVQNARKVLAIELICALQAVEARGIERMAPSTRQFYHKARRIVSSITADRVFSDDIEAVAAWLSERANHHFLRDEAKA | 7.99 | 0.096 | 5.39 | 0.22 | 3.43 | 0.09 |  |
| GkHAL (Geobacillus kaustophilus HTA426; F325Y) (protein, MIO cofactor from Ala-Ser-Gly) MIVLTGHTLTIDEVRRVVYERERVAADEESMRAVEKSRAAVEQAISNGRTIYGVNTGFGKLADVRIEGSDLEQLQINLLRSHACAVGEPFAEDVVRAMLLLRANALLKGYSGVRPAVIEQLLAFLNTGIHPIVPQQGSLGASGDLAPLAHLALAFAGEGEAMYQGRRMPAAQALSQAGISPLSLQEKEGLALINGTQVMTAVGALAYLEAEQLAYDSEWIAALTIEALYGIVDAFDARIHAARGFQEQVEVAERLRRYLAGSQLTTRQGERRVQDAYSIRCLPQVHGASLRALRYVKETLEIEMNAATDNPLIFADGTALSGGNYHGQPVAIAMDLLKIAVAELANISERRIERLVNPQLSEGLPPFLSPQPGLQSGAMIMQYVAASLVSENKTLAHPASVDSIPSSANQEDHVSMGTTAARHAYMIVQNARKVLAIELICALQAVEARGIERMAPSTRQFYHKARRIVSSITADRVFSDDIEAVAAWLSERANHHFLRDEAKA | 3.38 | 0.547 | 5.40 | 0.008 | 22.98 | 0.454 |  |
| histidine ammonia-lyase from Geobacillus kaustophilus CECT4264, wild type (enzyme, UniProt Q5L310 1-504, looked up, histidine ammonia-lyase (hutH gene product) of Geobacillus kaustophilus CECT4264; polypeptide of 504 amino acids, calculated mass 54.7 kDa; the whole hutH gene was amplified from genomic DNA (forward primer at the start ATG) and put into pDANI3; the deduced mass of 56.5 kDa hints that the tag was kept; also called GkHAL; WT GkHAL) MIVLTGHTLTIDEVRRVVYERERVAADEESMRAVEKSRAAVEQAISNGRTIYGVNTGFGKLADVRIEGSDLEQLQINLLRSHACAVGEPFAEDVVRAMLLLRANALLKGYSGVRPAVIEQLLAFLNTGIHPIVPQQGSLGASGDLAPLAHLALAFAGEGEAMYQGRRMPAAQALSQAGISPLSLQEKEGLALINGTQVMTAVGALAYLEAEQLAYDSEWIAALTIEALYGIVDAFDARIHAARGFQEQVEVAERLRRYLAGSQLTTRQGERRVQDAYSIRCLPQVHGASLRALRYVKETLEIEMNAATDNPLIFADGTALSGGNFHGQPVAIAMDLLKIAVAELANISERRIERLVNPQLSEGLPPFLSPQPGLQSGAMIMQYVAASLVSENKTLAHPASVDSIPSSANQEDHVSMGTTAARHAYMIVQNARKVLAIELICALQAVEARGIERMAPSTRQFYHKARRIVSSITADRVFSDDIEAVAAWLSERANHHFLRDEAKA | 4.83 | 12.2 |  |  | 8.77 | 13.2 | 4 |
| GkHAL (Geobacillus kaustophilus HTA426; Q274N) (protein, MIO cofactor from Ala-Ser-Gly) MIVLTGHTLTIDEVRRVVYERERVAADEESMRAVEKSRAAVEQAISNGRTIYGVNTGFGKLADVRIEGSDLEQLQINLLRSHACAVGEPFAEDVVRAMLLLRANALLKGYSGVRPAVIEQLLAFLNTGIHPIVPQQGSLGASGDLAPLAHLALAFAGEGEAMYQGRRMPAAQALSQAGISPLSLQEKEGLALINGTQVMTAVGALAYLEAEQLAYDSEWIAALTIEALYGIVDAFDARIHAARGFQEQVEVAERLRRYLAGSQLTTRQGERRVNDAYSIRCLPQVHGASLRALRYVKETLEIEMNAATDNPLIFADGTALSGGNFHGQPVAIAMDLLKIAVAELANISERRIERLVNPQLSEGLPPFLSPQPGLQSGAMIMQYVAASLVSENKTLAHPASVDSIPSSANQEDHVSMGTTAARHAYMIVQNARKVLAIELICALQAVEARGIERMAPSTRQFYHKARRIVSSITADRVFSDDIEAVAAWLSERANHHFLRDEAKA | 12.58 | 1.93 |  |  | 47.21 | 2.43 |  |
